Tests used:
[1] = tested on: E18 rat hippocampal cultured neurons; experiment: Live cell confocal microscopy of fluorescent α-Bgtx binding to cultured hippocampal neurons; conditions: 400 nM; untransfected neurons
Description: Dissociated hippocampal neurons were prepared from embryonic day 18 rat pups as described ([Hannan et al., 2012]). Briefly, hippocampi were dissected in ice-cold Hank's Balanced Salt Solution (HBSS) (Ca^2+/Mg^2+ free) before enzymatic dissociation in 0.1% (w/v) trypsin at 37 °C for 10 min followed by serial washes in pre-warmed HBSS to remove trypsin prior to trituration. Cells were mechanically dissociated using fire-polished glass Pasteur pipettes in plating medium composed of minimal essential medium (MEM) supplemented with 5% (v/v) fetal calf serum (FCS), 5% (v/v) horse serum, penicillin-G and streptomycin (200 units/ml and 200 μg/ml), 2 mM L-glutamine and 35 mM glucose. Cells were plated at a density of 10^6 per ml in plating medium on glass cover-slips previously coated with poly-D-lysine. The neurons were grown and maintained at 37 °C in a humidified 95% air/5% CO2 atmosphere.
In addition, low concentrations of fluorophore-conjugated α-Bgtx can also be used to avoid labelling of GABAARs as the affinity of α-Bgtx for endogenous GABAARs is lower compared to that for the BBS. […] Similarly, the over-expression of recombinant receptors in heterologous expression systems (HEK-293 cells) allows the detection of α-Bgtx fluorescence at low concentrations.

[2] = tested on: HEK-293 cells expressing only eGFP; experiment: α-Bgtx-AF555 cell surface staining of HEK-293 cells expressing only eGFP; format: binding; conditions: 400 nM α-Bgtx-AF555, 10 min RT, n = 6
Description: (§1) HEK-293 cells were maintained at 37 °C in a humidified 95% air/5% CO2 atmosphere in Dulbecco's modified Eagle's medium (DMEM) supplemented with 10% (v/v) fetal calf serum (FCS), penicillin-G and streptomycin (100 units/ml and 100 μg/ml), 2 mM L-glutamine. Cells were plated onto 22 mm glass coverslips (VWR), coated with poly-L-lysine (Sigma). All media components were from Life Technologies unless otherwise stated.
(§2) Cells were transfected with equimolar ratios of cDNAs encoding for α1–6, β1–3 and δ or γ2 GABAA receptor subunits along with eGFP using a calcium phosphate method ([Mortensen et al., 2011]) 15–45 min after plating.
Live transfected HEK-293 cells were studied 48 h after transfection and washed with Krebs to remove cell culture media and incubated in 400 nM α-Bgtx coupled with Alexa Fluor 555 (α-Bgtx-AF555; Life Technologies) for 10 min at room temperature (RT). […]
Confocal images were analysed using ImageJ (version 1.410) as described previously ([Hannan et al., 2013]). For each cell the surface membrane was identified by drawing a region-of-interest (ROI) in the eGFP channel and this was transferred to the α-Bgtx-AF555 channel and the mean membrane fluorescence values were determined. Mean background fluorescence was determined from a region devoid of cells. This was subtracted from the mean membrane fluorescence providing a mean corrected fluorescence intensity value. […]

α1β2γ2 GABAAR = target: T1, α1β2γ2 GABAAR (Mus musculus, UniProt P22723+P62812+P63137); experiment: α-Bgtx-AF555 cell surface staining of transfected HEK-293 cells; format: binding, murine; conditions: 400 nM α-Bgtx-AF555, 10 min RT; n = 6
T1 construct: expressed in transfected cells; host or cells: HEK-293
Description: (§3) Murine GABAAR α1-6, β1-3, γ2 and δ cDNAs subcloned into pRK-5 and pEGFP-C1 have been described previously ([Mortensen et al., 2011]).
as §1, §2
(§4) Live transfected HEK-293 cells were studied 48 h after transfection and washed with Krebs to remove cell culture media and incubated in 400 nM α-Bgtx coupled with Alexa Fluor 555 (α-Bgtx-AF555; Life Technologies) for 10 min at room temperature (RT). Cells were washed and fixed in 4% paraformaldehyde (PFA; Sigma) for 10 min at RT. The cells were imaged immediately post-fixation in saline using a Zeiss LSM 510 Meta confocal microscope and an Achroplan x40 water DIC objective (NA 0.8) as described previously ([Hannan et al., 2012]). This involved choosing the optimal z-section and acquiring images as a mean of 4 scans in 16-bits using a 543 nm Helium–Neon laser and a 560 nm long-pass filter for α-Bgtx-AF555 and a 488 Argon laser with a 505–530 nm band-pass filter for eGFP.
(§5) Confocal images were analysed using ImageJ (version 1.410) as described previously ([Hannan et al., 2013]). For each cell the surface membrane was identified by drawing a region-of-interest (ROI) in the eGFP channel and this was transferred to the α-Bgtx-AF555 channel and the mean membrane fluorescence values were determined. Mean background fluorescence was determined from a region devoid of cells. This was subtracted from the mean membrane fluorescence providing a mean corrected fluorescence intensity value. These values, for different combinations of receptors and drugs, were graphically plotted using Origin.

α4β1γ2 GABAAR = target: T2, α4β1γ2 GABAAR (Mus musculus, UniProt P22723+P50571+Q9D6F4); experiment: as above; format: binding, murine; conditions: 400 nM α-Bgtx-AF555, 10 min RT; n = 6; not significant vs eGFP alone
T2 construct: expressed in transfected cells; host or cells: HEK-293
Description: as §3, §1, §2, §4, §5

[3] = tested on: Receptors containing α3/5/6 subunits and β1/2γ2; experiment: as above; format: binding, murine; conditions: 400 nM, 10 min RT; P > 0.05
Description: as §3, §1, §2, §4, §5

α2β2γ2 GABAAR = target: T3, α2β2γ2 GABAAR (Mus musculus, UniProt P22723+P26048+P63137); experiment: as above; format: binding, murine; conditions: 400 nM α-Bgtx-AF555, 10 min RT; n = 6
T3 construct: expressed in transfected cells; host or cells: HEK-293
Description: as §3, §1, §2, §4, §5

α4β2γ2 GABAAR = target: T4, α4β2γ2 GABAAR (Mus musculus, UniProt P22723+P63137+Q9D6F4); experiment: as above; format: binding, murine; conditions: 400 nM α-Bgtx-AF555, 10 min RT; n = 6; not significant vs eGFP alone
T4 construct: expressed in transfected cells; host or cells: HEK-293
Description: as §3, §1, §2, §4, §5

α1β1γ2 GABAAR = target: T5, α1β1γ2 GABAAR (Mus musculus, UniProt P22723+P50571+P62812); experiment: as above; format: binding, murine; conditions: 400 nM α-Bgtx-AF555, 10 min RT; n = 6
T5 construct: expressed in transfected cells; host or cells: HEK-293
Description: as §3, §1, §2, §4, §5

α2β1γ2 GABAAR = target: T6, α2β1γ2 GABAAR (Mus musculus, UniProt P22723+P26048+P50571); experiment: as above; format: binding, murine; conditions: 400 nM α-Bgtx-AF555, 10 min RT; n = 6
T6 construct: expressed in transfected cells; host or cells: HEK-293
Description: as §3, §1, §2, §4, §5

β2 homomers = target: T7, β2 homomers (Mus musculus, UniProt P63137); experiment: α-Bgtx-AF555 staining of HEK-293 cells expressing β homomers, with or without permeabilisation; format: binding, murine; conditions: 400 nM α-Bgtx-AF555, with or without permeabilisation
T7 construct: expressed in transfected cells; host or cells: HEK-293
Description: as §3, §2, §4
(§6) In experiments using permeabilisation, cells were fixed in 4% PFA for 10 min at RT followed by washes (x3) in phosphate buffered saline (PBS; Sigma) and 0.1% triton-X100 (Sigma) was added for 10 min at RT in 10% (v/v) FCS. Cells were washed to remove the detergent and 400 nM α-Bgtx-AF555 was added for 10 min at RT to label intracellular receptors.
as §5

β1 homomers = target: T8, β1 homomers (Mus musculus, UniProt P50571); experiment: as above; format: binding, murine; conditions: 400 nM α-Bgtx-AF555, with or without permeabilisation
T8 construct: expressed in transfected cells; host or cells: HEK-293
Description: as §3, §2, §4, §6, §5

β3 homomers = target: T9, β3 homomers (Mus musculus, UniProt P63080); experiment: as above; format: binding, murine; conditions: 400 nM α-Bgtx-AF555, with or without permeabilisation
T9 construct: expressed in transfected cells; host or cells: HEK-293
Description: as §3, §2, §4, §6, §5

T2 sequence (P50571 26-474): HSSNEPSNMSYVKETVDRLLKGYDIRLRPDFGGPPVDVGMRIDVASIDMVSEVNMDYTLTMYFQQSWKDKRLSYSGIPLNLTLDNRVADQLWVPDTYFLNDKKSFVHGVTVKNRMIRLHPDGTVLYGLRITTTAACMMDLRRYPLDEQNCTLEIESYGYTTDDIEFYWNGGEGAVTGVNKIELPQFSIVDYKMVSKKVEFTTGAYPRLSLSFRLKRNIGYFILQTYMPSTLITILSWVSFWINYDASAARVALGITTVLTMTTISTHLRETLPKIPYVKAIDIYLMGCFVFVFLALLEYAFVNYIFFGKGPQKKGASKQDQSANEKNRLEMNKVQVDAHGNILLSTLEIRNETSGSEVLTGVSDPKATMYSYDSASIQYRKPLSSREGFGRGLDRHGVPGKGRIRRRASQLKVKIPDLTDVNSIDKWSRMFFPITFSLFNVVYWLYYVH
T2 sequence (P22723 39-474): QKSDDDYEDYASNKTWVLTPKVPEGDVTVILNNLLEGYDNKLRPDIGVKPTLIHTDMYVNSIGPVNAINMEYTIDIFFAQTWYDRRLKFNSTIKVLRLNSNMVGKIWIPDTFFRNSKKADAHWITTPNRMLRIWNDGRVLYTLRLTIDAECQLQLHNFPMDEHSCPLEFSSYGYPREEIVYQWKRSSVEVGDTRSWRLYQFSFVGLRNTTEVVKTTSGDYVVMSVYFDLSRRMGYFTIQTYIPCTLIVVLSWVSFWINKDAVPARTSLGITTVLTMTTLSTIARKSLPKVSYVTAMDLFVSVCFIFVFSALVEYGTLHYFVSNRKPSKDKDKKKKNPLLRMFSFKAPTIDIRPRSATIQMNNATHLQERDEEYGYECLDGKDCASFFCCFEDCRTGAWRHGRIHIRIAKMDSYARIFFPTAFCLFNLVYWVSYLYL
T2 sequence (Q9D6F4 36-552): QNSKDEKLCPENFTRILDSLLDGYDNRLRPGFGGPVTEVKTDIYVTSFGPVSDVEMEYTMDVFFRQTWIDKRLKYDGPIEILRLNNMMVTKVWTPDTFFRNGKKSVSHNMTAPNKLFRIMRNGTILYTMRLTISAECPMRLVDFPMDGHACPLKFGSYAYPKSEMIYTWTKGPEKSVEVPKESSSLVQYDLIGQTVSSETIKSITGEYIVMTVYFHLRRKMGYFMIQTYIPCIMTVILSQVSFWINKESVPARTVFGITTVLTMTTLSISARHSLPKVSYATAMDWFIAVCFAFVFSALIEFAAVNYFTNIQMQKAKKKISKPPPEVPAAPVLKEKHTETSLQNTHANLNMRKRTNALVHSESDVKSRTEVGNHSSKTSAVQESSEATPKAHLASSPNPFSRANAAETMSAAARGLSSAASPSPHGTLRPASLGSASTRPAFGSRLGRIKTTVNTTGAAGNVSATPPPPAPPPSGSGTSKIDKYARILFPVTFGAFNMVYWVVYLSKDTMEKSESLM
T8 sequence (P50571 26-474): as the sequence (P50571 26-474) above
T6 sequence (P22723 39-474): as the sequence (P22723 39-474) above
T6 sequence (P50571 26-474): as the sequence (P50571 26-474) above
T6 sequence (P26048 29-451): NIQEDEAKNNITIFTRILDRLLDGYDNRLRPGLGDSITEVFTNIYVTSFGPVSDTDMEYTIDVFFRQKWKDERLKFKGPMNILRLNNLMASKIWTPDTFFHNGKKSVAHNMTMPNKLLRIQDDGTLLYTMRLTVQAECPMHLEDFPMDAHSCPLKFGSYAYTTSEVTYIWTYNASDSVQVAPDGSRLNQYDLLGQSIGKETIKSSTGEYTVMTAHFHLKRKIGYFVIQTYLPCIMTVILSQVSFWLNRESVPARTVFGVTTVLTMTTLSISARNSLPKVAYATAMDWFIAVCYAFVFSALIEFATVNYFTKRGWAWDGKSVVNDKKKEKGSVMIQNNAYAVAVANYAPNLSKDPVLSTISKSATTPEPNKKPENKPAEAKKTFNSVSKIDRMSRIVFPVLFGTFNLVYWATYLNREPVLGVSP
T1 sequence (P63137 25-512): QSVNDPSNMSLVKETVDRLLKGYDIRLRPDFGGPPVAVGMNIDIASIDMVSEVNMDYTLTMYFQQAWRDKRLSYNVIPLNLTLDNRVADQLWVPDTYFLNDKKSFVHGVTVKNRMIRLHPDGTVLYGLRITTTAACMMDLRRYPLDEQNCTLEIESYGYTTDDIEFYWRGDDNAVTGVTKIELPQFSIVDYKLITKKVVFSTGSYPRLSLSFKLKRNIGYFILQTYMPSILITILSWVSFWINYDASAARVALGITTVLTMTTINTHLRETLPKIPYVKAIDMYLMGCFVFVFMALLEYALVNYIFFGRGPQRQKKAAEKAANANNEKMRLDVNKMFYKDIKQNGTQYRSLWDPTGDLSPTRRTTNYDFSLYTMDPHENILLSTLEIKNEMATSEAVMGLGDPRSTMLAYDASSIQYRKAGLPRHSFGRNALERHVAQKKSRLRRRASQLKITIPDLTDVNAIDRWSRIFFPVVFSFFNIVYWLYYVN
T1 sequence (P22723 39-474): as the sequence (P22723 39-474) above
T1 sequence (P62812 28-455): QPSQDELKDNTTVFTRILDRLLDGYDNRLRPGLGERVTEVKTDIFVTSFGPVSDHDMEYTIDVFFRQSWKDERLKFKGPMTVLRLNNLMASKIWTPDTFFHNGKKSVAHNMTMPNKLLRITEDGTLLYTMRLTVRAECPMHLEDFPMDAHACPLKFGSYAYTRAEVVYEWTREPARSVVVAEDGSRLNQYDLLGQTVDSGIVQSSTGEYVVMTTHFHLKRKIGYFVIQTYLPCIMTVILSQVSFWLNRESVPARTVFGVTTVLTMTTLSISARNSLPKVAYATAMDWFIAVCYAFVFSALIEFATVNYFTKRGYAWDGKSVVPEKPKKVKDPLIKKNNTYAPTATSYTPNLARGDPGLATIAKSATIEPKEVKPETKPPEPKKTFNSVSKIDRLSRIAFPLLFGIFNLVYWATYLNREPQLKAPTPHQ
T4 sequence (P63137 25-512): as the sequence (P63137 25-512) above
T4 sequence (P22723 39-474): as the sequence (P22723 39-474) above
T4 sequence (Q9D6F4 36-552): as the sequence (Q9D6F4 36-552) above
T7 sequence (P63137 25-512): as the sequence (P63137 25-512) above
T3 sequence (P63137 25-512): as above
T3 sequence (P26048 29-451): as the sequence (P26048 29-451) above
T3 sequence (P22723 39-474): as the sequence (P22723 39-474) above
T5 sequence (P62812 28-455): as the sequence (P62812 28-455) above
T5 sequence (P50571 26-474): as the sequence (P50571 26-474) above
T5 sequence (P22723 39-474): as the sequence (P22723 39-474) above
T9 sequence (P63080 26-473): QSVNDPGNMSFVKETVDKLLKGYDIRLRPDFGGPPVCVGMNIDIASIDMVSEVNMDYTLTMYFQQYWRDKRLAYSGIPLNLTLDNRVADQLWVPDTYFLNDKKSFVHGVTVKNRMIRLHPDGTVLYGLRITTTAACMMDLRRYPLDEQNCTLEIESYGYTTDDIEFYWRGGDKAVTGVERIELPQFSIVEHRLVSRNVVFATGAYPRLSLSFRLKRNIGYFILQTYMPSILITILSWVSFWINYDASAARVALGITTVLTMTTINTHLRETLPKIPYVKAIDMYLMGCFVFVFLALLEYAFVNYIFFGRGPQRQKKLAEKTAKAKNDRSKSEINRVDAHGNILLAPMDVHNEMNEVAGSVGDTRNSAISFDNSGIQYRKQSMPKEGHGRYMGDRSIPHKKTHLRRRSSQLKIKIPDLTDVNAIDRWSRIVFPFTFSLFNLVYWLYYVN

## α-Bgtx-AF555: α-Bgtx coupled to Alexa-Fluor 555 (Life Technologies)
[1]
  binding of fluorescent α-Bgtx: do not observe any binding
[2]
  mean cell surface fluorescence intensity: 9 ± 4 a.u.
α1β2γ2 GABAAR
  staining intensity (cell surface fluorescence): 324 ± 33 a.u.
α4β1γ2 GABAAR
  staining intensity (cell surface fluorescence): 90 ± 64 a.u.
[3]
  labelling with α-BgTx-AF555: did not show any labelling
α2β2γ2 GABAAR
  mean cell surface fluorescence intensity: 1294 a.u.
α4β2γ2 GABAAR
  staining intensity (cell surface fluorescence): 64 ± 56 a.u.
α1β1γ2 GABAAR
  staining intensity (cell surface fluorescence): 592 ± 46 a.u.
α2β1γ2 GABAAR
  mean cell surface fluorescence intensity: 1057 ± 64 a.u.
β2 homomers
  cell surface and intracellular staining: absent
β1 homomers
  cell surface and intracellular staining: absent
β3 homomers
  cell surface and intracellular staining: high levels of cell surface and intracellular staining
